The supplement of paper PMC10126150
± gives the standard deviation of the averaged measurements.

system: ATP; assay: switch fluorescence ratio, 500 uM ATP over buffer (Cy3 cluster intensity, sum of 5 cycles each) (fold (ratio)); higher = stronger signal-on switching upon ATP binding; sequences stand for … in TCGTCGGCAGCGTCAGATGTGTATAAGAGACAGTTTTTTTTTTTTTTTTTTTTTTTTT…TC; conditions: aptamer strand: ATP DNA aptamer (quencher-CACCTGGGGGAGTATTGCGGAGGAAGG + anchor), 100 nM annealed; ATP concentration: 500 uM
How it was run: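 Values give the fluorescence ratio for each switch-domain sequence, averaged from per-cluster ratios of summed target-cycle to summed buffer-cycle Cy3 intensity. The Cy3-labelled switching-strand clusters sat on a modified Illumina MiSeq flow-cell, were annealed to 100 nM quencher-labelled ATP aptamer, and were imaged in selection buffer, then after 15 min with 500 uM ATP at 22 °C. Five cycles ran with NaOH stripping and re-annealing between them, and clusters outside 100-1000 RFU were excluded.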
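Note: ATP exposure 15 min at 22 °C before imaging.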

| Sequence | switch fluorescence ratio |
| --- | --- |
| TTTCAGCGGG | 1 ± 0.018 |
| TTTCAGGGCT | 1.22 ± 0.16 |
| TTTCAGTATT | 1.01 ± 0.029 |
| TTTCAGTTGG | 1.02 ± 0.015 |
| TTTCATACGA | 1.01 ± 0.045 |
| TTTCATACGG | 1.008 ± 0.0034 |
| TTTCATCCAA | 1.42 ± 0.48 |
| TTTCATGTCG | 0.986 ± 0.1 |
| TTTCATGTTT | 0.9683 ± 0.007 |
| TTTCATTGGG | 1.01 ± 0.032 |
| TTTCATTTGG | 1.01 ± 0.03 |
| TTTCCAAATG | 0.9847 ± 0.0059 |
| TTTCCAAGAA | 1.03 ± 0.025 |
| TTTCCATTGG | 1.03 ± 0.015 |
| TTTCCATTGT | 0.995 ± 0.048 |
| TTTCCCAGGT | 3.64 ± 2.7 |
| TTTCCCCATT | 1.012 ± 0.0066 |
| TTTCCCGTTG | 1.07 ± 0.12 |
| TTTCCGAGGG | 1.43 ± 0.63 |
| TTTCCGATGA | 1.08 ± 0.032 |
| TTTCCGGGGT | 1.28 ± 0.31 |
| TTTCCGTTTT | 1.01 ± 0.038 |
| TTTCCTAACT | 1.04 ± 0.039 |
| TTTCCTATAT | 1.08 ± 0.078 |
| TTTCCTATTG | 1.01 ± 0.027 |
| TTTCCTGGGT | 1.14 ± 0.18 |

| Sequence | switch fluorescence ratio |
| --- | --- |
| TTTCCTGGTA | 0.9817 ± 0.0073 |
| TTTCCTTGCC | 1.19 ± 0.024 |
| TTTCCTTGTT | 1.09 ± 0.057 |
| TTTCGACTGG | 0.996 ± 0.02 |
| TTTCGAGGGG | 1.02 ± 0.054 |
| TTTCGAGGGT | 1.006 ± 0.0034 |
| TTTCGATCTC | 1.028 ± 0.0026 |
| TTTCGCAACG | 1.09 ± 0.047 |
| TTTCGCAGGT | 1.24 ± 0.15 |
| TTTCGCTTTT | 1.03 ± 0.044 |
| TTTCGGAAAC | 1.1 ± 0.017 |
| TTTCGGAAAT | 1.01 ± 0.016 |
| TTTCGGAGGA | 0.991 ± 0.018 |
| TTTCGGCGCG | 1.02 ± 0.038 |
| TTTCGGGATG | 1.01 ± 0.066 |
| TTTCGGGGGA | 1.01 ± 0.032 |
| TTTCGGGTAA | 1.34 ± 0.47 |
| TTTCGGTCCC | 1.02 ± 0.021 |
| TTTCGGTCGC | 1.003 ± 0.008 |
| TTTCGGTGGC | 0.99 ± 0.072 |
| TTTCGGTTTT | 1.04 ± 0.11 |
| TTTCGTAGGA | 1.28 ± 0.35 |
| TTTCGTGGGG | 0.992 ± 0.056 |
| TTTCGTTCTT | 1.02 ± 0.03 |
| TTTCTAAATC | 0.979 ± 0.01 |
| TTTCTAAGTT | 1.03 ± 0.021 |

| Sequence | switch fluorescence ratio |
| --- | --- |
| TTTCTAATGC | 1.03 ± 0.014 |
| TTTCTAGGCA | 1.01 ± 0.03 |
| TTTCTATTTG | 1.02 ± 0.029 |
| TTTCTCATTC | 1.08 ± 0.12 |
| TTTCTCCTTT | 1.04 ± 0.035 |
| TTTCTCGATG | 1.011 ± 0.0072 |
| TTTCTCGGAG | 1.08 ± 0.084 |
| TTTCTGGAGA | 1.05 ± 0.05 |
| TTTCTGGCGG | 1.02 ± 0.025 |
| TTTCTGGGGG | 0.984 ± 0.019 |
| TTTCTGTGGG | 0.986 ± 0.016 |
| TTTCTGTGTT | 1.012 ± 0.0069 |
| TTTCTTAATT | 1.4 ± 0.59 |
| TTTCTTACGC | 1.07 ± 0.066 |
| TTTCTTAGCT | 1.005 ± 0.0046 |
| TTTCTTATGA | 0.971 ± 0.025 |
| TTTCTTATTG | 1.031 ± 0.0085 |
| TTTCTTGGGT | 1.04 ± 0.17 |
| TTTCTTTAAA | 1.01 ± 0.019 |
| TTTCTTTATT | 1.05 ± 0.063 |
| TTTCTTTGAA | 0.977 ± 0.018 |
| TTTGAAAAGT | 1.022 ± 0.0028 |
| TTTGAAATTA | 0.9769 ± 0.003 |
| TTTGAAGGAA | 0.986 ± 0.017 |
| TTTGAAGGGG | 1.01 ± 0.035 |
| TTTGAATAAG | 0.995 ± 0.023 |

| Sequence | switch fluorescence ratio |
| --- | --- |
| TTTGACATTT | 1.02 ± 0.03 |
| TTTGACCTGG | 0.981 ± 0.043 |
| TTTGACGAAT | 1.012 ± 0.0081 |
| TTTGACTTGT | 1.005 ± 0.0045 |
| TTTGAGAGAT | 0.991 ± 0.029 |
| TTTGAGATAC | 1.39 ± 0.38 |
| TTTGAGATCT | 0.989 ± 0.027 |
| TTTGAGATGG | 0.99 ± 0.024 |
| TTTGAGCATA | 1.06 ± 0.042 |
| TTTGAGCGTT | 1.01 ± 0.04 |
| TTTGAGCTAT | 1.1 ± 0.029 |
| TTTGAGGATT | 1 ± 0.027 |
| TTTGAGTAAT | 1.027 ± 0.0017 |
| TTTGAGTGAC | 1.01 ± 0.031 |
| TTTGAGTGGG | 0.994 ± 0.025 |
| TTTGATATGG | 0.999 ± 0.038 |
| TTTGATCTTT | 1.01 ± 0.035 |
| TTTGATGAGC | 1.01 ± 0.034 |
| TTTGATGCCG | 0.973 ± 0.03 |
| TTTGATGTTA | 0.981 ± 0.034 |
| TTTGATTAT | 0.996 ± 0.012 |
| TTTGATTTGT | 1.042 ± 0.0087 |
| TTTGATTTTT | 0.984 ± 0.024 |
| TTTGCAAAGT | 1.005 ± 0.0069 |
| TTTGCAACAG | 0.986 ± 0.023 |
| TTTGCACCCT | 1.03 ± 0.041 |

| Sequence | switch fluorescence ratio |
| --- | --- |
| TTTGCAGCAT | 1.13 ± 0.22 |
| TTTGCAGGCA | 1.03 ± 0.011 |
| TTTGCAGGGC | 1.05 ± 0.012 |
| TTTGCATCTC | 1.03 ± 0.044 |
| TTTGCCACTT | 0.991 ± 0.011 |
| TTTGCCAGGA | 0.997 ± 0.0063 |
| TTTGCCATAG | 1.02 ± 0.022 |
| TTTGCCTCGT | 1.04 ± 0.025 |
| TTTGCGCGTT | 0.985 ± 0.018 |
| TTTGCGCTCG | 0.968 ± 0.037 |
| TTTGCTCGCC | 1.01 ± 0.04 |
| TTTGCTGAAC | 1.065 ± 0.0086 |
| TTTGCTTCCG | 1.1 ± 0.084 |
| TTTGCTTTTA | 1.04 ± 0.023 |
| TTTGGAAGGA | 0.998 ± 0.04 |
| TTTGGAAGT | 0.991 ± 0.028 |
| TTTGGAGGTT | 1.11 ± 0.2 |
| TTTGGATAAA | 1.04 ± 0.049 |
| TTTGGCAATT | 1.73 ± 0.57 |
| TTTGGCCAGC | 0.975 ± 0.051 |
| TTTGGCGATT | 0.962 ± 0.017 |
| TTTGGCTAGT | 1.01 ± 0.019 |
| TTTGGCTGTA | 0.97 ± 0.012 |
| TTTGGGAAGT | 1 ± 0.025 |
| TTTGGGACTC | 0.9731 ± 0.0023 |
| TTTGGGCAGC | 1.083 ± 0.0087 |

| Sequence | switch fluorescence ratio |
| --- | --- |
| TTTGGGCCAT | 1.04 ± 0.12 |
| TTTGGGCTAT | 1.021 ± 0.0064 |
| TTTGGGGACT | 0.984 ± 0.011 |
| TTTGGGGCTT | 1 ± 0.04 |
| TTTGGGGGGC | 1.05 ± 0.12 |
| TTTGGGGTCT | 1.01 ± 0.1 |
| TTTGGGGTGG | 0.974 ± 0.031 |
| TTTGGGTCGG | 0.993 ± 0.018 |
| TTTGGGTGGT | 1.09 ± 0.21 |
| TTTGGGTTGC | 0.982 ± 0.014 |
| TTTGGTAATG | 1.01 ± 0.021 |
| TTTGGTAGAG | 0.98 ± 0.018 |
| TTTGGTCCCT | 0.993 ± 0.016 |
| TTTGGTGAGG | 1.01 ± 0.02 |
| TTTGGTGCCG | 1.17 ± 0.23 |
| TTTGGTGGCT | 1.01 ± 0.015 |
| TTTGGTGTAG | 1.02 ± 0.015 |
| TTTGGTTCGA | 0.977 ± 0.012 |
| TTTGGTTGTT | 0.988 ± 0.019 |
| TTTGGTTTAC | 1.01 ± 0.019 |
| TTTGGTTTT | 0.988 ± 0.027 |
| TTTGTAAAAA | 0.9829 ± 0.0094 |
| TTTGTAAAAG | 0.977 ± 0.033 |
